Assay results published in patent US20090099029A1, “Methods and substrates for conducting assays” (Invitrogen Corporation, priority 2005, published 2009).

Tested on: kinases of Table 6 on Myelin Basic Protein (MBP)
Experiment: Kinase assay using MBP substrate, ProQ Diamond stain (Table 6)
Type: biochemical
Details: kinase printed on MBP-coated slide; 20 uM ATP, 30° C.; ProQ Diamond Microarray Stain; graded Strong/Weak/Negative
Description: In this illustrative example, four-well slides were designed with a hydrophobic mask surrounding 4-wells of aldehyde- or epoxy-coated glass (smooth or ES grade; Erie Scientific (Portsmouth, N.H.)). […] Bovine, dephosphorylated, Myelin Basic Protein (MBP) was purchased from Upstate Biotechnology (#13-110). MBP was diluted to 1 mg/ml in PBS, applied to the slide surface, covered with a coverslip, and left overnight at 4° C. to coat the slide with the MBP. Slides were washed 3 times with water and spun dry before printing.
Kinases were purchased from Panvera (Invitrogen, Carlsbad, Calif.), diluted in printing buffer (50 mM Tris pH 7.5, 25% glyercol, 0.05% TritonX-100, 2 mM DTT) and deposited using a GeneMachine OmniGrid100. Slides were stored at −20° C.
Reactions were performed following removal of the slide from the freezer. Reaction buffer (20 mM HEPES pH 7.5, 4 mM MgCl2, 2 mM DTT, 20 uM ATP, 5% DMSO) was added with or without inhibitor, a coverslip applied, and the slide placed at 30° C. for the appropriate reaction time. The slide was washed with water to stop the reaction (3 times) and spun dry. ProQ Diamond Microarray Stain (Invitrogen #P33706) was applied, covered with a coverslip, and the slide was incubated in the dark at room temperature for 30 minutes. The slide was destained and washed three times with water, and spun dry.

| Compound | MBP Kinase Activity |
| --- | --- |
| ABL1 | Weak |
| ADRBK1(GRK2) | Negative |
| AKT1 | Strong |
| BLK | Weak |
| CDK5/p35 | Strong |
| CHEK2 | Strong |
| CLK1 | Strong |
| CLK3 | Strong |
| CLK4 | Negative |
| CSNK1E(CK1eps) | Negative |
| CSNK1G1(CK1gamma1) | Negative |
| CSNK1G2 | Negative |
| CSNK1G3 | Weak |
| CSNK2A1(CK2alpha1) | Strong |
| EPHA7 | Weak |
| ERBB2 | Negative |
| FGFR1 | Strong |
| FGR | Weak |
| FYN | Strong |
| GRK5 | Negative |
| GSK3B | Negative |

| Compound | MBP Kinase Activity |
| --- | --- |
| HCK | Strong |
| IKBKB | Weak |
| INSR | Strong |
| KDR(VEGFR2) | Strong |
| LCK | Strong |
| LYNA | Weak |
| MAP2K1(MEK1) | Negative |
| MAP2K2(MEK2) | Negative |
| MAP4K5(KHS1) | Negative |
| MAPK1(ERK2) | Strong |
| MAPK3(ERK1) | Strong |
| MAPKAPK2 | Strong |
| MLCK | Negative |
| MST4 | Negative |
| NEK6 | Negative |
| NEK7 | Negative |
| NTRK1 | Strong |
| NTRK2 | Strong |
| NTRK3 | Strong |
| PHKG1 | Negative |
| PIM1 | Strong |

| Compound | MBP Kinase Activity |
| --- | --- |
| PIM2 | Weak |
| PKN1(PRK1) | Strong |
| PLK1 | Negative |
| PRKCA | Strong |
| PRKCB1 | Strong |
| PRKCB2 | Strong |
| PRKCD | Strong |
| PRKCG | Strong |
| PRKCI | Strong |
| PRKCQ | Strong |
| PTK6(BRK) | Strong |
| RPS6KA3(RSK2) | Strong |
| RPS6KA5(MSK1) | Weak |
| STK6(AuroraA) | Weak |
| STK24(MST3) | Weak |
| STK25(YSK1) | Strong |
| TBK1 | Strong |
| WEE1 | Negative |
| YES1 | Weak |

Tested on: 39 kinases (Table 4)
Experiment: not given
Details: known general specificities of the inhibitors; cited from earlier work

| Compound | General Specificity |
| --- | --- |
| Oc1ccc(-c2nc(-c3ccncc3)c(-c3ccc(F)cc3)[nH]2)cc1 [SB 202190] | Serine/threonine |
